Two molecules from patent publication US20260021168A1 can be followed below.

In data set [1] the target is ATGAM (equine Anti-thymocyte Globulin). Put plainly: cell-based or functional assay.
For data set [2], the target named is Thymoglobulin (Genzyme), rabbit anti-thymocyte globulin. The data set can be described thus: cell-based or functional assay.
Data set [3] has as its target alemtuzumab (Campath, anti-CD52, Genzyme), intact IgG. The data set can be described thus: cell-based or functional assay.
In data set [4] the target is endogenous human serum IgG.

Where only a bound is given, the exact number is not on record here.

“imlifidase (IdeS, Immunoglobulin G-degrading enzyme of S. pyogenes)”: the cytotoxic activity of ATGAM in whole blood after imlifidase treatment, CD3+ flow cytometry in data set [1] is over 30 µg/mL. Besides, the cleavage of 50 µg/mL rATG in sera of imlifidase-treated subjects, SDS-PAGE and Western blot in data set [2] turned out to be 0.5 µg/mL. In data set [3], this molecule displayed a block of the cytotoxic effect of alemtuzumab on CD3-positive T-cells in whole blood, flow cytometry of 1.9 µg/mL and an imlifidase concentration sufficient for cleavage in whole blood (SDS-PAGE of plasma, CD3+ flow cytometry) of 4 µg/mL.

B1: imlifidase (IdeS, Immunoglobulin G-degrading enzyme of S. pyogenes) (protein)
chain: DSFSANQEIRYSEVTPYHVTSVWTKGVTPPANFTQGEDVFHAPYVANQGWYDITKTFNGKDDLLCGAATAGNMLHWWFDQNKDQIKRYLEEHPEKQKINFNGEQMFDVKEAIDTKNHQLDSKLFEYFKEKAFPYLSTKHLGVFPDHVIDMFINGYRLSLTNHGPTPVKEGSKDPRGGIFDAVFTRGDQSKLLTSRHDFKEKNLKEISDLIKKELTEGKALGLSHTYANVRINHVINLWGADFDSNGNLKAIYVTDSDSNASIGMKKYFVGVNSAGKVAISAKEIKEDNIGAQVLGLFTLSTGQDSWNQTN
In the case of B1, in data set [4], the “imlifidase concentration sufficient for cleavage in whole blood (SDS-PAGE of plasma)” value was “a concentration of approx. 4 µg/mL imlifidase is sufficient to cleave all serum IgG and 100 µg/mL alemtuzumab”.
